Experimental findings from the RNAGym collection of RNA variant scans (doi:10.7554/elife.90254) are described below.

To fix the notation:
B1: LINE1-mini (parent)
chain: GGCAGAGCUCAACACAGCGUGGCAAAGUGGCUGUGGCUAGACUGCC

The data set covers variants of B1. The experiment in a line: self-cleavage, relative activity (ratio to wild type); higher = more cleavage; in vitro, sequencing; the parent is a self-cleaving ribozyme.
Turning to C37U A41C, the self-cleavage came out at 0.02.

With C37U A41G, the self-cleavage stood at 0.04. For C37U A41U the value was 0.06; for C37U U38C, 0.06; for C37U U38G, 0.03.

With C37U U38A, the self-cleavage turned out to be 0.04. Turning to U38A G44U, the self-cleavage amounted to 0.17.

As to U38A G44C, the self-cleavage was 0.09. For the variant U38A G44A, the self-cleavage was 0.28. U38C A41G: the self-cleavage is 0.11. Turning to U38C A41U, the self-cleavage turned out to be 0.13. Take U38C A41C: the self-cleavage is 0.04.

In the case of G36U G44A, the self-cleavage was 0.06. Turning to G36U G44C, the self-cleavage was found to be 0.08. For G36U G44U the value was 0.09; for U38C U43A, 0.04. For U38C U43G, the self-cleavage is 0.07. In the case of U38C U43C, the self-cleavage was found to be 0.11.

U38G A39G: the self-cleavage worked out at 0.02.

As to U38G A39C, the self-cleavage was determined as 0.1. For U38G A39U, the self-cleavage turned out to be 0.13. The figure for U38A A41G is 0.14; for U38A A41C it is 0.04; for U38A A41U it is 0.1. For U38C G44U the value was 0.27; for U38C G44C, 0.32. For the variant U38C G44A, the self-cleavage turned out to be 0.3. The figure for G36U U43A is 0.04; for G36U U43G it is 0.1; for G36U U43C it is 0.06. On to U38G G40U, for which the self-cleavage is 0.05. Turning to U38G G40C, the self-cleavage was determined as 0.03. U38G G40A: the self-cleavage came to 0.04. Consider U38A G40U, for which the self-cleavage was determined as 0.18. Regarding U38A G40C, the self-cleavage worked out at 0.09.

As to U38A G40A, the self-cleavage was 0.17. For the variant C37G C45G, the self-cleavage stood at 0.08. As to C37G C45U, the self-cleavage came out at 0.03. Turning to C37G C45A, the self-cleavage worked out at 0.03. Take C37G G40U: the self-cleavage turned out to be 0.08. In the case of C37G G40A, the self-cleavage was determined as 0.08. In the case of C37G G40C, the self-cleavage worked out at 0.08.

On to G36U G40U, for which the self-cleavage came to 0.19. For G36U G40C the value was 0.09; for G36U G40A, 0.13. C37G G44C: the self-cleavage was found to be 0.03. With C37G G44U, the self-cleavage worked out at 0.07. Consider C37G G44A, for which the self-cleavage is 0.04. The figure for U38A C46A is 0.35; for U38A C46G it is 0.38. Take U38A C46U: the self-cleavage turned out to be 0.3. As for C37A A41G, the self-cleavage was 0.12. As for C37A A41U, the self-cleavage was 0.08. Regarding C37A A41C, the self-cleavage came to 0.03. Take U38A C42G: the self-cleavage worked out at 0.07. For U38A C42U, the self-cleavage was 0.21. As for U38A C42A, the self-cleavage was found to be 0.1. For C37G U43G the value was 0.05; for C37G U43C, 0.09. Take C37G U43A: the self-cleavage is 0.07. The figure for U38A A39G is 0.25; for U38A A39C it is 0.49; for U38A A39U it is 0.85.

Take U38C: the self-cleavage stood at 0.6. Consider U38G, for which the self-cleavage turned out to be 0.03. With U38A, the self-cleavage was determined as 0.47. With U38G C45G, the self-cleavage stood at 0.05. For the variant U38G C45A, the self-cleavage is 0.04.

As to U38G C45U, the self-cleavage was 0.05. Consider U38A U43A, for which the self-cleavage was found to be 0.03. As to U38A U43C, the self-cleavage came to 0.13. With U38A C45U, the self-cleavage was 0.59. U38A C45A: the self-cleavage came out at 0.2. Consider U38A C45G, for which the self-cleavage amounted to 0.26.

Turning to U38C C45A, the self-cleavage came out at 0.35. Turning to U38C C45U, the self-cleavage came out at 1.38. U38C C45G: the self-cleavage was found to be 0.47. Consider C37G, for which the self-cleavage worked out at 0.05. The figure for C37U is 0.07; for C37A it is 0.08.

Take C37G C46G: the self-cleavage came out at 0.17. Regarding C37G C46A, the self-cleavage was determined as 0.02.

In the case of C37G C46U, the self-cleavage was 0.04. Turning to C37A G44A, the self-cleavage was 0.13. With C37A G44C, the self-cleavage came to 0.07. For C37A G44U, the self-cleavage is 0.18. Consider G36U U38G, for which the self-cleavage amounted to 0.02.

For G36U U38A, the self-cleavage was 0.05. For G36U U38C the value was 0.11; for C37U A39G, 0.02; for C37U A39C, 0.14. With C37U A39U, the self-cleavage stood at 0.04. Turning to U38G C46G, the self-cleavage worked out at 0.02.

Consider U38G C46U, for which the self-cleavage came to 0.04. Take U38G C46A: the self-cleavage came to 0.02. For the variant G36U C46G, the self-cleavage worked out at 0.08. For G36U C46A, the self-cleavage came out at 0.1.

As to G36U C46U, the self-cleavage stood at 0.1. C37U G44U: the self-cleavage is 0.25. Turning to C37U G44A, the self-cleavage came out at 0.1. As to C37U G44C, the self-cleavage was 0.05. With C37A A39C, the self-cleavage turned out to be 0.12.

For the variant C37A A39G, the self-cleavage turned out to be 0.05.

C37A A39U: the self-cleavage came out at 0.22. In the case of C37G U38C, the self-cleavage stood at 0.04.

As for C37G U38A, the self-cleavage was determined as 0.03. For C37G U38G the value was 0.01; for U38C C42A, 0.07; for U38C C42U, 0.07. As to U38C C42G, the self-cleavage was determined as 0.15. Take C37U C46A: the self-cleavage worked out at 0.07. Take C37U C46U: the self-cleavage worked out at 0.06. Consider C37U C46G, for which the self-cleavage is 0.04.

Regarding C37U U43A, the self-cleavage came to 0.11. As to C37U U43G, the self-cleavage is 0.11. As for C37U U43C, the self-cleavage amounted to 0.06. In the case of C37U C45A, the self-cleavage turned out to be 0.06. As for C37U C45U, the self-cleavage is 0.04.

On to C37U C45G, for which the self-cleavage is 0.08. C37U C42U: the self-cleavage amounted to 0.1. The figure for C37U C42A is 0.12.

On to C37U C42G, for which the self-cleavage is 0.03. Regarding C37A U38C, the self-cleavage came to 0.03. Turning to C37A U38G, the self-cleavage came to 0.03. The figure for C37A U38A is 0.04; for U38G C42A it is 0.03; for U38G C42G it is 0.02. The figure for U38G C42U is 0.03.

On to U38G A41U, for which the self-cleavage is 0.04.

Take U38G A41G: the self-cleavage is 0.14.

For the variant U38G A41C, the self-cleavage stood at 0.02.

Turning to C37G A41C, the self-cleavage came out at 0.02. For C37G A41G, the self-cleavage is 0.03.

With C37G A41U, the self-cleavage amounted to 0.03. In the case of C37A C42U, the self-cleavage came to 0.16. As for C37A C42A, the self-cleavage came to 0.05. As for C37A C42G, the self-cleavage came out at 0.06. For the variant C37A U43A, the self-cleavage turned out to be 0.13. For C37A U43G the value was 0.08; for C37A U43C, 0.05; for C37A C45G, 0.17.

For the variant C37A C45A, the self-cleavage was 0.19. Take C37A C45U: the self-cleavage was 0.08. C37U G40U: the self-cleavage was determined as 0.16.

As to C37U G40A, the self-cleavage stood at 0.14.

Take C37U G40C: the self-cleavage stood at 0.24. The figure for C37A G40U is 0.2; for C37A G40A it is 0.19.

On to C37A G40C, for which the self-cleavage is 0.2. U38C G40A: the self-cleavage turned out to be 0.07. With U38C G40U, the self-cleavage stood at 0.1. U38C G40C: the self-cleavage was 0.06. C37G C42G: the self-cleavage is 0.02. Take C37G C42U: the self-cleavage was 0.02. As for C37G C42A, the self-cleavage was 0.09. Take U38C C46U: the self-cleavage was 0.44. For U38C C46G, the self-cleavage came to 0.64. Turning to U38C C46A, the self-cleavage turned out to be 1.27.

Regarding C37A C46A, the self-cleavage was 0.05. For C37A C46G the value was 0.06. The figure for C37A C46U is 0.04; for C37G A39G it is 0.02. Turning to C37G A39C, the self-cleavage is 0.06. For the variant C37G A39U, the self-cleavage was found to be 0.08. Take U38C A39U: the self-cleavage was found to be 0.7. Take U38C A39G: the self-cleavage was determined as 0.06. For U38C A39C the value was 0.1.
